According to patent US20060147378A1, “Azulene dimer-quenched, near-infrared fluorescent probes” (priority 2002, published 2006):
Where no end group is shown, it is not given here. Alexa‑680 maleimide = near-infrared fluorochrome (Ex 679 nm, Em 702 nm) reacted with the cysteine; NIRQ750 = not defined here

Assays:
[1] = tested on: T1, NIRQ750-GDEVDGSGC-Alexa-680 caspase-3 substrate probe
T1 sequence: GDEVDGSGC

caspase-3 = biological target: T2, caspase-3 (Homo sapiens, UniProt P42574); test: Activation of NIRF probes by caspase-3 with or without inhibitor; assay type: biochemical
T2 sequence (P42574 29-175 limits assumed): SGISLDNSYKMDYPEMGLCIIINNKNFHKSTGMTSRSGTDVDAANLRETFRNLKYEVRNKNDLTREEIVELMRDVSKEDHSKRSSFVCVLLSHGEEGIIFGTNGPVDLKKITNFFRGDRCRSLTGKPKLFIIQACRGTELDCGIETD
T2 sequence (P42574 176-277 limits assumed): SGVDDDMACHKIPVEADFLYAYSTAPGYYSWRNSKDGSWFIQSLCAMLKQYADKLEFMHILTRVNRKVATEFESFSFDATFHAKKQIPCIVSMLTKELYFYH
Method: The HPLC purified NIRF probes were tested against caspase-3 with or without an inhibitor of the enzyme in pH7.2 buffer (20 mM PIPES, 100 mM NaCl, 10 mM DTT, 1 mM EDTA, 0.1% CHAPS, 10% sucrose). Within 180 minutes, the fluorescence signal of NIRQ750-probe (probe 6, FIG. 7A) had increased about 4-fold while no activation was observed when the caspase-3 specific inhibitor was present (FIG. 7B). […] As expected, the fluorescence signal of both negative controls, (probe 7, FIG. 7A) with enzyme and probe 6 without enzyme, were remained unchanged.

activation (fluorescence signal) with caspase-3 specific inhibitor present (caspase-3; caspase-3 plus caspase-3 specific inhibitor, pH7.2 buffer) | fluorescence signal without enzyme (caspase-3; negative control, no enzyme, pH7.2 buffer) | increase of fluorescence signal (caspase-3; with caspase-3, within 180 minutes, pH7.2 buffer (PIPES, NaCl, DTT, EDTA, CHAPS, sucrose)) | Substance | fluorescence signal increase (probe activation by enzymatic cleavage) within 180 minutes [1]
– | – | – | caspase-3 | had increased about 4-fold
no activation | unchanged | about 4 fold | probe 6: NIRQ750 anchored to N-terminus of caspase-3 cleavable peptide GDEVDGSGC, Alexa-680 maleimide on the cysteine residue (NIRQ750-GDEVDGSGC(Alexa‑680 maleimide); not fully specified (C-terminus); reading uncertain) | –
